Test results: the supplement of paper PMC7877785
± gives the uncertainty stated by the source.

Experiment: self-splicing fitness, log relative to wild type (ln ratio); higher = more splicing; Tetrahymena group I intron in knt gene, E. coli kanamycin selection, DiMSum; sequences stand for … in CUCUCU…GGAGGGAAAAGUUAUCAGGCAUGCACCUGGUAGCUAGUCUUUAAACCAAUAGAUUGCAUCGGUUUAAAAGGCAAGACCGUCAAAUUGCGGGAAAGGGGUCAACAGCCGUUCAGUACCAAGUCUCAGGGGAAACUUUGAGAUGGCCUUGCAAAGGGUAUGGUAAUAAGCUGACGGACAUGGUCCUAACCACGCAGCCAAGUCCUAAGUCAACAGAUCUUCUGUUGAUAUGGAUGCAGUUCACAGACUAAAUGUCGGUCGGGGAAGAUGUAUUCUUCUCAUAAGAUAUAGUCGGACCUCUCCUUAAUGGGAGCUAGCGGAUGAAGUGAUGCAACACUGGAGCCGCUGGGAACUAAUUUGUAUGCGAAAGUAUAUUGAUUAGUUUUGGAGUACUCGUGGUCG
Procedure, shortened: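 Fitness was computed with DiMSum as the error-weighted combination of replicate fold changes, kanamycin versus none, each normalised to wild type. The library randomised all eight intron nucleotides of the P1ex region, with the intron placed in the knt kanamycin-resistance gene on pET-22b(+) in E. coli BL21(DE3). Six replicate transformations were grown overnight at 37°C or 30°C on LB agar with or without 25 μg/mL kanamycin, plus 100 μg/mL carbenicillin, 50 μM IPTG and 0.2% rhamnose. Pooled colonies were amplicon-sequenced on an Illumina HiSeq 2500.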

Sequence | self-splicing fitness (ln) (30 °C) | self-splicing fitness (ln) (37 °C)
GAGAAGCAAUAUUACGGUGU | -3.57 ± 0.15 | -1.58 ± 0.099
GAGAAGCAAUAUUACGUACC | -1.18 ± 0.23 | -0.414 ± 0.35
GAGAAGCAAUAUUACGUGAG | -1.32 ± 0.058 | -1.57 ± 0.1
GAGAAGCAAUAUUACGUGCC | -0.556 ± 0.11 | -0.064 ± 0.11
GAGAAGCAAUAUUACGUGGA | -2.64 ± 0.17 | -1.81 ± 0.14
GAGAAGCAAUAUUACGUGUA | -2.8 ± 0.15 | -1.41 ± 0.13
GAGAAGCAAUAUUACGUUCG | -1.38 ± 0.072 | -0.765 ± 0.095
GAGAAGCAAUAUUACGUUUU | -2.39 ± 0.14 | -1.96 ± 0.17
GAGCAGCAAUAUUACGAAGG | – | -2.79 ± 0.34
GAGCAGCAAUAUUACGACAC | -0.81 ± 0.23 | -0.627 ± 0.21
GAGCAGCAAUAUUACGACUG | -1.75 ± 0.11 | -2.01 ± 0.18
GAGCAGCAAUAUUACGAGAU | -3.68 ± 0.18 | -2.64 ± 0.17
GAGCAGCAAUAUUACGAUAG | -3.7 ± 0.29 | -3.14 ± 0.24
GAGCAGCAAUAUUACGAUCG | -2.76 ± 0.17 | -2.48 ± 0.26
GAGCAGCAAUAUUACGAUUC | -0.868 ± 0.093 | -0.29 ± 0.14
GAGCAGCAAUAUUACGCAGA | -3.22 ± 0.21 | -0.954 ± 0.1
GAGCAGCAAUAUUACGCAGG | -2.08 ± 0.13 | -2.55 ± 0.19
GAGCAGCAAUAUUACGCGCU | -3.19 ± 0.38 | -1.9 ± 0.36
GAGCAGCAAUAUUACGCUUG | -2.4 ± 0.13 | -0.209 ± 0.12

Sequence | self-splicing fitness (ln) (30 °C) | self-splicing fitness (ln) (37 °C)
GAGCAGCAAUAUUACGGAUG | -3.85 ± 0.25 | -1.73 ± 0.15
GAGCAGCAAUAUUACGGGAG | -3.68 ± 0.32 | -2.9 ± 0.35
GAGCAGCAAUAUUACGGGGU | -2.96 ± 0.16 | -3.18 ± 0.17
GAGCAGCAAUAUUACGGGUG | -4.47 ± 0.22 | -2.17 ± 0.15
GAGCAGCAAUAUUACGGUCG | -2 ± 0.17 | -2.28 ± 0.17
GAGCAGCAAUAUUACGUAGA | -2.24 ± 0.1 | -1.03 ± 0.13
GAGCAGCAAUAUUACGUAGC | -0.99 ± 0.11 | -1.65 ± 0.13
GAGCAGCAAUAUUACGUCGC | -2.31 ± 0.14 | -1.47 ± 0.15
GAGCAGCAAUAUUACGUUCA | -1.38 ± 0.13 | -0.931 ± 0.13
GAGCAGCAAUAUUACGUUCU | – | -2.48 ± 0.26
GAGCAGCAAUAUUACGUUUG | -2.84 ± 0.11 | -1.31 ± 0.11
GAGGAGCAAUAUUACGAACA | -2.69 ± 0.23 | -2.07 ± 0.16
GAGGAGCAAUAUUACGACGU | -1.37 ± 0.13 | -0.0936 ± 0.15
GAGGAGCAAUAUUACGAGCG | -3.24 ± 0.35 | -1.55 ± 0.28
GAGGAGCAAUAUUACGAGUA | – | -1.51 ± 0.37
GAGGAGCAAUAUUACGAUAC | -1.9 ± 0.18 | -2.05 ± 0.38
GAGGAGCAAUAUUACGAUGA | -2.31 ± 0.24 | -1.42 ± 0.35
GAGGAGCAAUAUUACGAUGG | -3.58 ± 0.2 | -2.44 ± 0.22
GAGGAGCAAUAUUACGAUGU | -3.29 ± 0.33 | -2.69 ± 0.32
